According to patent US20070031956A1 (VERTEX PHARMACEUTICALS, published 2007):

Molecular target: the molecule itself
Assay: analytical ultracentrifugation (sedimentation velocity), monomer-dimer self-association
Procedure: All sedimentation velocity experiments were performed with the Beckman Coulter Optima XL-I using an An60 Ti rotor and charcoal-filled Epon double-sector cells. […] Experiments were performed at 42,000 rpm for 8 h at 20° C. Radial absorbance scans were collected in continuous scan mode at 280 nm every 10 min at a spacing of 0.001 cm.

B1: Full-length human Pim-1 kinase (residues M1-K313) with N-terminal HexaHis tag and thrombin cleavage site (enzyme)
chain: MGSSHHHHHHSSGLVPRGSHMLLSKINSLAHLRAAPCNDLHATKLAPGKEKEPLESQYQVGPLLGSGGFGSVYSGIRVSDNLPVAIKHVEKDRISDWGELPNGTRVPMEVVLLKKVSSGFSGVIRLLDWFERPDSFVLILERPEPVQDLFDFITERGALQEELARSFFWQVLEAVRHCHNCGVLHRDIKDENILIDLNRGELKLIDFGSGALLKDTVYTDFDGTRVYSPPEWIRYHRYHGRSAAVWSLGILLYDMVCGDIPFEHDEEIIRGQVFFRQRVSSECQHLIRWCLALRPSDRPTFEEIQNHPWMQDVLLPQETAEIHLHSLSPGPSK
modifications: heterogeneous phosphorylation (mixture of species with 0-5 phosphoryl groups): extensively phosphorylated in the HexaHis tag region; Ser261 major site in Pools III and IV; minor sites Ser8, Thr23 and Ser98
notes: Expressed in E. coli and purified by TALON, Superdex 200 and MonoQ; also called Pim-1 protein
  Kd: 23 µM
  monomer:dimer ratio (dimer share): 20
